Results on one molecule are retold here after paper PMC6941992, “Polar recruitment of RLD by LAZY1-like protein during gravity signaling in root branch angle control” (Nature Communications, 2020).

As a reminder, the Kd is the constant that tells how readily two partners part at equilibrium. The low end stands for higher affinity, the high end for lower affinity. For orientation: stoichiometry N means the number of molecules, sites or subunits per partner or assembly.

This experiment addresses T1, RLD2 BRX domain (residues 1006-1066) (Arabidopsis thaliana, UniProt F4K0X5 1006-1066).
T1 construct: HRV3C cleavage may leave vector residues at the N-terminus (surmised); source: E. coli BL21Star (DE3), purified (His-tag resin, HRV3C cleavage, gel filtration); for crystals co-expressed with LZY3 (274-287); not shown: His6, N-terminal, cleaved
T1 sequence (looked up): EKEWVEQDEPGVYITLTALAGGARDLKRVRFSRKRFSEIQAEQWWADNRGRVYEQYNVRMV
As to the kind of experiment: ITC; iTC200, 20 °C; 20 mM Tris-HCl pH 8.0, 150 mM NaCl; 200 μM LZY3 (274-287) injected into 20 μM RLD2 BRX domain; 1:1 binding model. The note with it: both partners purified. For orientation: Isothermal titration calorimetry measures the heat released or taken up as one component is titrated into another.

B1: LZY3 CCL peptide (residues 274-287) (peptide, UniProt Q5XVG3 274-287, looked up)
chain: KWVKTDSDFIVLEI
notes: LZY3 (LAZY1-LIKE 3), Arabidopsis thaliana, residues 274-287 (CCL domain); HRV3C cleavage may leave vector residues at the N-terminus (surmised); also called CCL β-hairpin; source: E. coli BL21Star (DE3), purified (glutathione sepharose, HRV3C cleavage, gel filtration, reverse phase); for crystals co-expressed with RLD2; not shown: GST, N-terminal, cleaved
As to B1, the Kd was found to be 9.7 ± 2.2 nM, the dH was -11.3 ± 0.09 kcal/mol and the “stoichiometry N” value stood at 0.73 ± 0.002.
